Measurements as given in patent US10597674B2, “HPPD variants and methods of use” (BASF Agricultural Solutions Seed, US LLC, priority 2015, dated 2020).
Changes are numbered by the printed parent chain. Names may count otherwise.

Key:
soybean shoots = test: Soybean transformation, selection of shoots with tembotrione; format: in vivo; conditions: wild-type soybean shoots treated with selection marker
Excerpt: Soybean transformation was achieved by using methods well known in the art, such as the one described using the Agrobacterium tumefaciens mediated transformation soybean half-seed explants using essentially the method described by Paz et al. (2006), Plant cell Rep. 25:206. Transformants were identified by using the HPPD inhibitor herbicide “tembotrione” as selection marker. The appearance of green shoots was observed, and documented as an indicator of tolerance to the HPPD inhibitor herbicide tembotrione.

[1] = system: E. coli cells expressing an HPPD polypeptide; test: Brown Color Assay on solid LB-agar, visual score of brown pigment; format: cell-based; conditions: 25, 50, 100, 250 and 500 μM Cmpd. 1
Method: Mutant HPPD polypeptides were analyzed using a brown color assay (WO2014/043435). Bacterial cells expressing the mutant HPPD polypeptide according to the invention were assayed in 96 well format for HPPD inhibitor tolerance by spotting on solid media containing LB-agar, selection agent for the expression vector pSE420(RI)NX (WO2014/043435), 5 mM tyrosine (Sigma-Aldrich, St. Louis, USA), 42 mM succinate (Sigma-Aldrich, St. Louis, USA) and six different concentrations of the HPPD inhibitor herbicide Cmpd. 1 (0-500 μM). In the brown color assay, an overnight culture of the E. coli cells expressing one of the respective mutant HPPD polypeptides were diluted to an OD600 of 1 and 10 μl extract was spotted in triplicates on plates containing 0, 25, 50, 100, 250, or 500 μM of Cmpd. 1. Plates were covered with airpore tape and incubated at 30 degrees C. After 24 hours, the cells were kept in darkness at room temperature and after 7 days the brown pigment formation was scored visually. In the presence of an HPPD inhibitor herbicide, this pigment formation is inhibited and the color of the agar plate will not alter, unless an HPPD inhibitor herbicide tolerant HPPD polypeptide is expressed and active. […] The “++” and “+” scores a medium and light brown pigmentation, respectively, and the “0” means that no brown pigmentation development was detected on the LB agar plates.

[2] = biological target: HPPD polypeptides (wild-type SEQ ID NO:1 and mutants) (Pseudomonas sp., UniProt P80064, A172V/A339V/A53E/D148E/D45N/E105D/E287Q/E300V/E334P/F143Y/G286D/G335H/H150N/H254A/H63N/I158V/I187A/I249V/I344V/K92N/L18F/N24G/N280D/N336S/P267G/S245T/S257K/S301E/T205S/T269E/V65I); conditions: compared with SEQ ID NO: 24; Table 3a and 3c
[3] = system: transgenic T1 soybean events; test: Field trials of T1 soybean events, leaf damage eight days after application; format: in vivo
Method: Soybean plants expressing an HPPD inhibitor tolerant polypeptide of the present invention alone, or along with a gene conferring tolerance to glyphosate and/or a gene conferring tolerance to glufosinate or having a “plant expression cassette”, which includes only an HPPD inhibitor tolerant polypeptide of the present invention, were tested for tolerance to different HPPD inhibitor herbicide chemical classes. The transgenic plants were routinely analyzed for the expression and presence of the transgenes using the ELISA protein detection method (see detailed description under item D and H). Only plants recovering in the selection media and having a detectable HPPD transgene protein expression were regenerated, transferred to the greenhouse and used at V2-V4 growth stage for the HPPD inhibitor herbicide tolerance analysis of the T0 soybean events in the greenhouse (Example 6). The chemical formulation with HPPD inhibitor herbicides was supplemented with ammonium sulfate and methyl ester rapeseed oil. Herbicide tolerance evaluation was taken 5-21 days after spraying. The best performing independent T0 soybean events were selfed to produce T1 soybean seeds. In the field trails, the advanced T1 soybean seeds were planted and treated with either 210 g/ha of isoxaflutole or 150 g/ha of Cmpd.
In Table 10, the frequency of the soybean events showing a good tolerance, i.e. equal or less than 15% damage of the total leaf area are summarized

[4] = biological target: HPPD polypeptides (wild-type SEQ ID NO:1 and mutants) (Pseudomonas sp., UniProt P80064, A172V/A339V/A53E/D148E/D329H/D45N/E105D/E287Q/E300V/E334P/F143Y/G286D/G335D/H150N/H254A/H63N/I158V/I187A/I249V/K92N/L18F/M263R/N24G/N280D/N336S/S245T/S257K/S301E/T205S/V65I); conditions: compared with SEQ ID NO:12; Tables 3a, 3b
HPPD polypeptides (wild-type SEQ ID NO:1 and mutants) (Pseudomonas sp., UniProt P80064, A172V/A339V/A53E/D148E/D329H/D45N/E105D/E287Q/E300V/E334P/F143Y/G286D/G335D/H150N/H254A/H63N/I158V/I187A/I249V/K92N/L18F/M263R/N24G/N280D/N336S/S245T/S257K/S301E/T205S/V65I), sequence (P80064 other isoform, or with tags, fused parts or gaps with the stated changes): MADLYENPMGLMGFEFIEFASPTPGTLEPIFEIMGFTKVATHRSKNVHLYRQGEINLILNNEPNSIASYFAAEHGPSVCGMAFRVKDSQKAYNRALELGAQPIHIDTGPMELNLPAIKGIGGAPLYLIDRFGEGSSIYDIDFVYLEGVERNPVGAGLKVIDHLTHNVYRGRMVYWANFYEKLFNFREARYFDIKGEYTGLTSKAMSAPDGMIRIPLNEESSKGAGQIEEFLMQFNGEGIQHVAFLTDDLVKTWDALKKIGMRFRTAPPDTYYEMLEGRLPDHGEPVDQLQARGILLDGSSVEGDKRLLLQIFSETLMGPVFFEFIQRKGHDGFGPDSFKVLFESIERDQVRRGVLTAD

[5] = system: HPPD polypeptides (purified, wild-type SEQ ID NO:1 and mutants); test: Coupled HPPD activity assay: ki determination, competitive inhibition fit; format: biochemical, Pseudomonas fluorescens; conditions: inhibitor Cmpd. 1
Method: For the generation of purified HPPD polypeptide samples, cells were grown for 3 h at 37° C. in 5 ml LB medium containing 100 μg/ml ampicillin in a 50 ml shaker flask at 140 rpm. One ml of this starter culture was used as inoculum for the expression culture. […] At an OD600 of about 0.6, IPTG (Roth, Karlsruhe, Germany) was added to a concentration of 0.4 mM. After further growth for 60 min at 37° C., the temperature was reduced to 28° C. and growth continued for another 18 h at 140 rpm. Cells were harvested by centrifugation at 4° C., 3200 g for 30 min in 50 ml Falcon tubes and cell pellets were stored at −80° C. […]
The resulting protein samples were re-buffered into 20 mM Tris, 20% Glycerol (pH 7.8) (Sigma-Aldrich, St. Louis, USA) by use of Zeba™ Spin Desalting Columns, 7K MWCO, 10 mL (Thermo Fisher Scientific, Waltham, USA) and analysed for protein concentration and purity by Abs280 (NANODROP 8000, Thermo Fisher Scientific, Waltham, USA) and SDS-PAGE. […]
The mutant HPPD polypeptides represented here are examples by a way of illustration, not by a way of limitation. […] The inhibitor concentrations were adopted for the respective HPPD polypeptide/inhibitor pairs to generate dynamic data, i.e. variants with lower tolerance were analyzed in a range of lower inhibitor concentrations, and concentrations of up to 1200 μM were used for variants with maximized tolerance. […]

[6] = biological target: HPPD polypeptides (wild-type SEQ ID NO:1 and mutants) (Pseudomonas sp., UniProt P80064, A172V/A339V/A53E/D148E/D329H/D45N/E105D/E287Q/E300V/E334P/F143Y/G286D/G335D/H150N/H254A/H63N/I158V/I187A/I249V/I344V/K92N/L18F/M263R/N24G/N280D/N336S/P267G/S245T/S257K/S301E/T205S/T269E/V65I); conditions: 15 μM Cmpd. 1, high substrate concentration (Table 3a)
HPPD polypeptides (wild-type SEQ ID NO:1 and mutants) (Pseudomonas sp., UniProt P80064, A172V/A339V/A53E/D148E/D329H/D45N/E105D/E287Q/E300V/E334P/F143Y/G286D/G335D/H150N/H254A/H63N/I158V/I187A/I249V/I344V/K92N/L18F/M263R/N24G/N280D/N336S/P267G/S245T/S257K/S301E/T205S/T269E/V65I), sequence (P80064 other isoform, or with tags, fused parts or gaps with the stated changes): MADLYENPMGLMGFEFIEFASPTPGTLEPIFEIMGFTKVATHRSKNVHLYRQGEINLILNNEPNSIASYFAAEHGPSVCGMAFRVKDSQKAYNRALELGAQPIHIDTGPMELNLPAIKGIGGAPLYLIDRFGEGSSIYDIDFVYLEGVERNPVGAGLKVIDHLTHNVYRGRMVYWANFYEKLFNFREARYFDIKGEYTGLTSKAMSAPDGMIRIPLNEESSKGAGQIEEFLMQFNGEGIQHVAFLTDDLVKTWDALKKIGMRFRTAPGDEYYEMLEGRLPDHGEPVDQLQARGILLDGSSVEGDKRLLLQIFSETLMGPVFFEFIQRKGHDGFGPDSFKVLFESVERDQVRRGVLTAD

[7] = system: HPPD polypeptides (wild-type SEQ ID NO:1 and mutants); conditions: 50 μM Cmpd. 1, low substrate concentration (Table 5)
[8] = biological target: HPPD polypeptides (wild-type SEQ ID NO:1 and mutants) (Pseudomonas sp., UniProt P80064, A172V/A339V/A53E/D148E/D45N/E105D/E287Q/E300V/E334P/F143Y/G286D/G335D/H150N/H254A/H63N/I158V/I187A/I249V/I344V/K92N/L18F/N24G/N280D/N336S/P267G/S245T/S257K/S301E/T205S/T269E/V65I); conditions: 50 μM Cmpd. 1, low substrate concentration
HPPD polypeptides (wild-type SEQ ID NO:1 and mutants) (Pseudomonas sp., UniProt P80064, A172V/A339V/A53E/D148E/D45N/E105D/E287Q/E300V/E334P/F143Y/G286D/G335D/H150N/H254A/H63N/I158V/I187A/I249V/I344V/K92N/L18F/N24G/N280D/N336S/P267G/S245T/S257K/S301E/T205S/T269E/V65I), sequence (P80064 other isoform, or with tags, fused parts or gaps with the stated changes): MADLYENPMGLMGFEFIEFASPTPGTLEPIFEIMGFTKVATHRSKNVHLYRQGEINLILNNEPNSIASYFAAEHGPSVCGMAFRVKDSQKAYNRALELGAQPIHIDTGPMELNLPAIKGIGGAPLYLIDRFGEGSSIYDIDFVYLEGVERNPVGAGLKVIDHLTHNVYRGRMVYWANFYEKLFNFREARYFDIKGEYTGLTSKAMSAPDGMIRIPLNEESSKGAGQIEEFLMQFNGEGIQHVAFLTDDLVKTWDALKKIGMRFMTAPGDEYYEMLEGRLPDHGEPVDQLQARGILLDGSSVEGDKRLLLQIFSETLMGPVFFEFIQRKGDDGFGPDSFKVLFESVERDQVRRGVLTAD

[9] = 150 g/ha Cmpd. 1, stage V2-V4, eight days after application
[10] = 210 g/ha isoxaflutole, stage V2-V4, eight days after application

Molecule: CS(=O)(=O)c1ccc(C(=O)C2C(=O)CCCC2=O)c(Cl)c1COCC(F)(F)F [tembotrione, 2-[2-chloro-4-(methylsulfonyl)-3-[(2,2,2,-trifluoroethoxy)methyl]benzoyl]-1,3-cyclohexanedione]
- appearance of shoots (soybean shoots): entirely bleached

B1: SEQ ID NO:31 (protein)
chain: MADLYENPMGLMGFEFIEFASPTPGTLEPIFEIMGFTKVATHRSKNVHLYRQGEINLILNNEPNSIASYFAAEHGPSVCGMAFRVKDSQKAYNRALELGAQPIHIDTGPMELNLPAIKGIGGAPLYLIDRFGEGSSIYDIDFVYLEGVERNPVGAGLKVIDHLTHNVYRGRMVYWANFYEKLFNFREARYFDIKGEYTGLTSKAMSAPDGMIRIPLNEESSKGAGQIEEFLMQFNGEGIQHVAFLTDDLVKTWDALKKIGMRFMTAPGDEYYEMLEGRLPDHGEPVDQLQARGILLDGSSVEGDKRLLLQIFSETLMGPVFFEFIQRKGDDGFGPHSFKVLFESVERDQVRRGVLTAD
modifications: mutant HPPD polypeptide
- brown coloring compared with SEQ ID NO: 2, in words [1]: stronger brown coloring
- residual turnover in the presence of Cmpd. 1 and MST, in words [2]: increase significantly

B2: SEQ ID NO: 18: mutant HPPD polypeptide: M264R D330H E335P G336D N337S A340V (protein)
chain: B1 chain with M264R, G268P, E270T, D330H, H336D, V345I
modifications: mutant HPPD polypeptide
notes: mutant HPPD polypeptide: M264R D330H E335P G336D N337S A340V
- Frequency in the population (events with ≤15% leaf damage) [3, 9]: 60%
- Independent events with ≤15% leaf damage after spray [3, 9]: 12
- Frequency in the population (events with ≤15% leaf damage) [3, 10]: 60%
- Independent events with ≤15% leaf damage after spray [3, 10]: 12
- HPPD inhibitor tolerance towards Cmpd. 1 and Cmpd. 2, in words [4]: further significant improved

B3: SEQ ID NO:19 (protein)
chain: B1 chain with M264R, D330H, H336D
modifications: mutant HPPD polypeptide
- increase of ki towards Cmpd. 1 compared to SEQ ID NO:2 [5]: ~30 fold
- Residual activity [6]: 68%
- Residual turnover [6]: 79%

B4: SEQ ID NO:17 (protein)
chain: B1 chain with H336D
modifications: mutant HPPD polypeptide
- increase of ki towards Cmpd. 1 compared to SEQ ID NO:2 [5]: ~20 fold
- Residual activity [7]: 29%
- reduction of substrate turnover [8]: 46%
